Assay results reported in publication PMC3882142.

Biological target: bacteriophage P22 coat protein (CP), assembled as the P22 VLP capsid (bacteriophage P22) (UniProt P26747)
Assay: SEC-MALS

Chain of UniProt P26747 (P26747 whole entry): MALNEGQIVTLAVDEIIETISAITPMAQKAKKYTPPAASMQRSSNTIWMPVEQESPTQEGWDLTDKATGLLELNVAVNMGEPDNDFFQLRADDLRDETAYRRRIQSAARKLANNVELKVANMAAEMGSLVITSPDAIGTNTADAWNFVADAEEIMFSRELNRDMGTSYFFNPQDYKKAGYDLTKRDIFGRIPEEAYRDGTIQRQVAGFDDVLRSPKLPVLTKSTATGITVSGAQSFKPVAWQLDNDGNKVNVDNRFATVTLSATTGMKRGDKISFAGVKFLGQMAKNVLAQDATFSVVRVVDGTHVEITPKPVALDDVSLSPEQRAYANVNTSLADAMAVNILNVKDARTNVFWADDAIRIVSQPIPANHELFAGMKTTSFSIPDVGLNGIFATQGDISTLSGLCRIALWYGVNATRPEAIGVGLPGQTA

| Substance | stoichiometry N (proteins per capsid) |
| --- | --- |
| GalA-SP fusion protein (alpha-galactosidase of Pyrococcus furiosus fused to the truncated scaffold protein of P22) | 183 |
| HA_(head)-SP fusion protein (hemagglutinin head of influenza fused to the truncated scaffold protein of P22) | 286 |
